The labels stand for the following.
B1: Azoarcus group I ribozyme (parent)
chain: GUGCCUUGCGCCGGGAAACCACGCAAGGGAUGGUGUCAAAUUCGGCGAAACCUAAGCGCCCGCCCGGGCGUAUGGCAACGCCGAGCCAAGCUUCGGCGCCUGCGCCGAUGAAGGUGUAGAGACUAGACGGCACCCACCUAAGGCAAACGCUAUGGUGAAGGCAUAGUCCAGGGAGUGGCGAAAGUCACACAAACCGG

Variants of B1 are the subject of the series. Kind of series: reverse-splicing fitness (ratio to wild type); higher = more active; in vitro selection; Mg2+ level not given. An outline of the steps:
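An in vitro group I ribozyme library with randomized positions was T7-transcribed and gel-purified. In triplicate, 10 pmol RNA in EPPS pH 7.5 was reacted with 50 pmoles of a 30-nt RNA substrate for 1 h at 37 °C across several added MgCl2 levels (1–48 mM), then stopped with EDTA. Products were reverse transcribed from a substrate-complementary primer, PCR-amplified and sequenced (HiSeq 4000). Fitness is a variant's read proportion after selection over that before, normalised to wild type.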
For A111C A120G A145U C150A C169A U176G, the reverse-splicing fitness stood at 0.00497. Next, C82A A111C A120U A145C C169A U176A: 0.00272; C82G A120G C169G: 0.0529; C82G A111U A120C A145C C150G U176A: 0.00451. For A145U C150G C169U U176G, the reverse-splicing fitness was 0.00591. Next, C82A A111U A145G C169G U176A: 0.023; C82G A111C A145G C150U C169A: 0.0097; C82G A111U A120G A145G C150A C169G U176C: 0.025. In the case of C82U A111U A120U A145U C169G U176C, the reverse-splicing fitness came to 0.00286. Next, C82A A111G A120U A145U C150A C169G U176G: 0.0019. In the case of C82G A111U A120G C169A, the reverse-splicing fitness turned out to be 0.00993. For C82U A111G A120C A145U C150U C169U, the reverse-splicing fitness came to 0.00989. For C82G A111G A145C C150G C169U U176G, the reverse-splicing fitness came out at 0.00582. Next, A111C C150U C169A U176A: 0.0164; C82A A120G A145G C150G C169G U176C: 0.0124. In the case of C82A A111U A120G C169G U176A, the reverse-splicing fitness stood at 0.0219. On to C82U A111C A120C C150G C169G U176G, for which the reverse-splicing fitness stood at 0.00547. Next, C82U A111U A145G C150A C169A: 0.00979. For the variant A111G A120G A145C C150A C169A U176G, the reverse-splicing fitness is 0.00399. For A111U A145U C169U U176G, the reverse-splicing fitness was found to be 0.00639. Next, C82G A120G A145C C150A C169U U176A: 0.0196; C82G A111G A120U A145G C169U U176A: 0.00415; C82U A111C C150U C169G U176A: 0.0119. Next, C82U A111G A120U C150U C169U U176C: 0.00375. Next, C82A A120C C150A: 0.0224; A111C A120G C169G U176A: 0.0304; A111C A120G A145G C150U C169A U176C: 0.0222. With C82A A111U A120U A145C C150A U176A, the reverse-splicing fitness was 0.00368. Next, C82U A111C A120U C150U U176A: 0.00642. On to A111C A145C C150U C169G U176G, for which the reverse-splicing fitness was found to be 0.00689. Next, C82A A145U C169U U176C: 0.0127; C82G A111C A145C C150A C169U U176C: 0.0122. As for C82G A111G A120U A145U C150G C169U U176C, the reverse-splicing fitness was 0.00309. Next, C82G A111C A145G C150U U176C: 0.11. Regarding C82A A111U A120U A145C C150A C169G U176G, the reverse-splicing fitness turned out to be 0.0026. C82U A120C A145C C169G U176C: the reverse-splicing fitness is 0.00783. Next, C82U A111U A120C A145U C150A C169A U176A: 0.0106; A111U A120G A145G C150G C169G U176C: 0.0108. Next, C82U A111U A120G A145G C150G C169A U176G: 0.00764; A111C A145G C150A C169U: 0.0232. Next, C82G A111U A120U A145C C150U C169G U176C: 0.00262; C82A A111G A145U C150U U176A: 0.106; C82A A111G A120C A145G C150A C169A U176A: 0.019.

In the case of C82U A120C C150U C169U U176A, the reverse-splicing fitness stood at 0.0176. C82A A111C A120C A145G C150G C169A: the reverse-splicing fitness worked out at 0.00894. As to C82G A111C A120U A145C C169U, the reverse-splicing fitness is 0.00341.

Turning to C82A A120C A145G C150U C169G U176G, the reverse-splicing fitness is 0.00573.

With A111G A120G A145C C150G, the reverse-splicing fitness was determined as 0.036. Next, C82G A111C A120C A145G C150G C169U U176C: 0.0117. Next, C82G A145U C150G U176A: 0.0361. In the case of C82U A111C A145G C150U C169U U176G, the reverse-splicing fitness stood at 0.00645. Next, C82G A111G A120C A145C C169A: 0.00695; C82U A111C A120G A145G C150A C169A U176A: 0.0155; C82A A111G A120U A145U C150G C169U U176C: 0.00353. For the variant C82G A111G A145C C150U C169G U176C, the reverse-splicing fitness was 0.0114. As to C82U A111U A120U A145C C169U U176G, the reverse-splicing fitness stood at 0.00177.

For A111G A120G A145C C150U C169G U176A, the reverse-splicing fitness turned out to be 0.0412. Next, C82A A111G A120C A145C C169U U176A: 0.0161; C82U A120U A145C C150U: 0.0391. In the case of C82G A111U U176G, the reverse-splicing fitness is 0.0695. For the variant A111C C150G U176G, the reverse-splicing fitness was determined as 0.0131. Next, A145C C169G U176A: 0.0744. Consider C82U A111C A120C A145U C169G U176C, for which the reverse-splicing fitness turned out to be 0.0132.

As for C82U A111U A120C A145G C150A C169U U176G, the reverse-splicing fitness was 0.00615. Next, A111U A120U A145C C169G U176G: 0.00199; C82A A111G A120G A145U C150G C169A U176G: 0.00526; A111U A145U C150U U176A: 0.632. Turning to C82U A120G A145C, the reverse-splicing fitness was 0.0203. With C82U C150G C169G U176C, the reverse-splicing fitness was 0.0054. Next, C82A A111U A120G A145C C169U: 0.00838. As for C82U A120C A145G C150A C169G, the reverse-splicing fitness was found to be 0.00829. Next, C82U A111G A120U A145C C150G U176G: 0.00159; A111G A120U A145C C169A U176G: 0.0014. On to A120U C150G C169G, for which the reverse-splicing fitness is 0.0252. For C82G A111U A120G A145U C150U C169G U176G, the reverse-splicing fitness is 0.00511. C82A A111G A120U A145C C169U: the reverse-splicing fitness is 0.00349.

Take C82G A120U A145C C150U C169G U176G: the reverse-splicing fitness came out at 0.00162. Next, A120U A145G C169U U176C: 0.126; A111U A120C C150G C169U U176C: 0.0162; C82G A111U A120U A145G C150A C169A U176G: 0.00334.

C82G A120G A145C C150A U176C: the reverse-splicing fitness turned out to be 0.00828. Next, C82A A120C A145G C150G C169U U176G: 0.00779; A120C A145U C150G C169A U176G: 0.0044.

For the origin of these results see the RNAGym collection of RNA variant scans (doi:10.1093/molbev/msab373).
